Data taken from PMC9352680, “A comprehensive thermodynamic model for RNA binding by the Saccharomyces cerevisiae Pumilio protein PUF4”.

T1: PUF4 RNA-binding domain (Saccharomyces cerevisiae, UniProt P25339 537-888)
T1 sequence: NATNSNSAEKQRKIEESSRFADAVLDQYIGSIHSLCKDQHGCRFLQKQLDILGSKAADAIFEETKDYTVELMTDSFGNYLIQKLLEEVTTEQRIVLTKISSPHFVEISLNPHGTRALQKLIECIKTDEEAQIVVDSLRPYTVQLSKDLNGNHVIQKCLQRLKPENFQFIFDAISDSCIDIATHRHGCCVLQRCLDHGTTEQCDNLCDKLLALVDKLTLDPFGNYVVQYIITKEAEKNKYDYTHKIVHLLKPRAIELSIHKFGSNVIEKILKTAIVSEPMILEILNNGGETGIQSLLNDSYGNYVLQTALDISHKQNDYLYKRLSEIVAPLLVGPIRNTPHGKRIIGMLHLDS


Biological target: T1, PUF4 RNA-binding domain
Test: Mg; RNA-MaP; 20 mM Na-HEPES pH 7.4, 30 mM KOAc, 0.75 mM MgCl2, 0.1% Tween-20, 5% glycerol, 0.1 mg/mL BSA, 2 mM DTT; 25 C; 0.0125-409.6 nM protein
Details: tags: N-His6-TEV cleaved; C-SNAP kept, Cy3B-labelled; label: tethered on chip by stalled RNA polymerase

Binder	Kd [µM]
UCUCUUUGCAUAUAUCUCUU (ssRNA) [Ia_S1_P3E.1_K3.1_C3.1_H3.1_[T3C]_A3.1_F3.1_T3.1]	> 2.3
Ib_S4_P4E.1_K4.1_C4.1_H4.1_A4.1_F4.1_[T8G]_[A9C]_T4.1 (ssRNA) RNA: UUUGACAACUGAUCGUUCUUUCUUGUAUAUGCUUCUUUCUCGAUCAGUUGUCUUU	0.0206
Ib_S4_P4E.1_K4.1_C4.1_H4.1_A4.1_F4.1_[T8A]_[A9G]_T4.1 (ssRNA) RNA: UUUGACAACUGAUCGUUCUUUCUUGUAUAUAGUUCUUUCUCGAUCAGUUGUCUUU	0.00997
Ib_S4_P4E.1_K4.1_C4.1_H4.1_[G2C]_A4.1_F4.1_[A9C]_T4.1 (ssRNA) RNA: UUUGACAACUGAUCGUUCUUUCUUCUAUAUUCUUCUUUCUCGAUCAGUUGUCUUU	1.53
Ib_S4_P4E.1_K4.1_C4.1_H4.1_[T1C]_A4.1_F4.1_[A9C]_T4.1 (ssRNA) RNA: UUUGACAACUGAUCGUUCUUUCUCGUAUAUUCUUCUUUCUCGAUCAGUUGUCUUU	1.02
Ib_S4_P4E.1_K4.1_C4.1_H4.1_A4.1_[T5A]_F4.1_[T8C]_T4.1 (ssRNA) RNA: UUUGACAACUGAUCGUUCUUUCUUGUAAAUCAUUCUUUCUCGAUCAGUUGUCUUU	0.0784
Ib_S4_P4E.1_K4.1_C4.1_H4.1_[T1G]_A4.1_F4.1_[T8C]_T4.1 (ssRNA) RNA: UUUGACAACUGAUCGUUCUUUCUGGUAUAUCAUUCUUUCUCGAUCAGUUGUCUUU	> 2.3
Ib_S4_P4E.1_K4.1_C4.1_H4.1_[T1A]_A4.1_F4.1_[A9G]_T4.1 (ssRNA) RNA: UUUGACAACUGAUCGUUCUUUCUAGUAUAUUGUUCUUUCUCGAUCAGUUGUCUUU	2.23
Ib_S4_P4E.1_K4.1_C4.1_H4.1_[T3C]_A4.1_F4.1_[A9G]_T4.1 (ssRNA) RNA: UUUGACAACUGAUCGUUCUUUCUUGCAUAUUGUUCUUUCUCGAUCAGUUGUCUUU	> 2.3
Ib_S4_P4E.1_K4.1_C4.1_H4.1_A4.1_F4.1_[T8C]_[A9G]_T4.1 (ssRNA) RNA: UUUGACAACUGAUCGUUCUUUCUUGUAUAUCGUUCUUUCUCGAUCAGUUGUCUUU	0.0171
Ib_S4_P4E.1_K4.1_C4.1_H4.1_[A4G]_A4.1_F4.1_[T8C]_T4.1 (ssRNA) RNA: UUUGACAACUGAUCGUUCUUUCUUGUGUAUCAUUCUUUCUCGAUCAGUUGUCUUU	0.0244
Ib_S4_P4E.1_K4.1_C4.1_H4.1_[G2A]_A4.1_F4.1_[A9G]_T4.1 (ssRNA) RNA: UUUGACAACUGAUCGUUCUUUCUUAUAUAUUGUUCUUUCUCGAUCAGUUGUCUUU	0.329
Ib_S4_P4E.1_K4.1_C4.1_H4.1_[A4C]_A4.1_F4.1_[A9G]_T4.1 (ssRNA) RNA: UUUGACAACUGAUCGUUCUUUCUUGUCUAUUGUUCUUUCUCGAUCAGUUGUCUUU	0.252
Ib_S4_P4E.1_K4.1_C4.1_H4.1_[T1G]_A4.1_F4.1_[T8A]_T4.1 (ssRNA) RNA: UUUGACAACUGAUCGUUCUUUCUGGUAUAUAAUUCUUUCUCGAUCAGUUGUCUUU	1.41
Ib_S4_P4E.1_K4.1_C4.1_H4.1_[A4G]_A4.1_F4.1_[T8A]_T4.1 (ssRNA) RNA: UUUGACAACUGAUCGUUCUUUCUUGUGUAUAAUUCUUUCUCGAUCAGUUGUCUUU	0.00619
Ib_S4_P4E.1_K4.1_C4.1_H4.1_[A4G]_A4.1_F4.1_[A9C]_T4.1 (ssRNA) RNA: UUUGACAACUGAUCGUUCUUUCUUGUGUAUUCUUCUUUCUCGAUCAGUUGUCUUU	0.0121
Ib_S4_P4E.1_K4.1_C4.1_H4.1_[A4T]_A4.1_F4.1_[A9C]_T4.1 (ssRNA) RNA: UUUGACAACUGAUCGUUCUUUCUUGUUUAUUCUUCUUUCUCGAUCAGUUGUCUUU	0.406
Ic_S4_P4E.1_K4.1_C4.1_H4.1_A4.1_F4.1_[T8A]_[A9C]_T4.1 (ssRNA) RNA: UUUGACAACUGAUCGUUCUUUCUUGUAUAUACUUCUUUCUCGAUCAGUUGUCUUU	0.0063
Ib_S4_P4E.1_K4.1_C4.1_H4.1_[T1G]_A4.1_F4.1_[A9G]_T4.1 (ssRNA) RNA: UUUGACAACUGAUCGUUCUUUCUGGUAUAUUGUUCUUUCUCGAUCAGUUGUCUUU	1.71
Ib_S4_P4E.1_K4.1_C4.1_H4.1_[T3C]_A4.1_F4.1_[A9T]_T4.1 (ssRNA) RNA: UUUGACAACUGAUCGUUCUUUCUUGCAUAUUUUUCUUUCUCGAUCAGUUGUCUUU	1
Ib_S4_P4E.1_K4.1_C4.1_H4.1_[T1C]_A4.1_F4.1_[T8C]_T4.1 (ssRNA) RNA: UUUGACAACUGAUCGUUCUUUCUCGUAUAUCAUUCUUUCUCGAUCAGUUGUCUUU	0.652
Ib_S4_P4E.1_K4.1_C4.1_H4.1_[A4C]_A4.1_F4.1_[A9C]_T4.1 (ssRNA) RNA: UUUGACAACUGAUCGUUCUUUCUUGUCUAUUCUUCUUUCUCGAUCAGUUGUCUUU	0.501
Ib_S4_P4E.1_K4.1_C4.1_H4.1_[A4C]_A4.1_F4.1_[A9T]_T4.1 (ssRNA) RNA: UUUGACAACUGAUCGUUCUUUCUUGUCUAUUUUUCUUUCUCGAUCAGUUGUCUUU	0.268
Ib_S4_P4E.1_K4.1_C4.1_H4.1_[A4C]_A4.1_F4.1_[T8A]_T4.1 (ssRNA) RNA: UUUGACAACUGAUCGUUCUUUCUUGUCUAUAAUUCUUUCUCGAUCAGUUGUCUUU	0.458

Binder	Kd [µM]
Ib_S4_P4E.1_K4.1_C4.1_H4.1_A4.1_[T5C]_F4.1_[T8C]_T4.1 (ssRNA) RNA: UUUGACAACUGAUCGUUCUUUCUUGUACAUCAUUCUUUCUCGAUCAGUUGUCUUU	0.00886
Ib_S4_P4E.1_K4.1_C4.1_H4.1_[T3C]_A4.1_F4.1_[A9C]_T4.1 (ssRNA) RNA: UUUGACAACUGAUCGUUCUUUCUUGCAUAUUCUUCUUUCUCGAUCAGUUGUCUUU	> 2.3
Ib_S4_P4E.1_K4.1_C4.1_H4.1_[G2C]_A4.1_F4.1_[T8C]_T4.1 (ssRNA) RNA: UUUGACAACUGAUCGUUCUUUCUUCUAUAUCAUUCUUUCUCGAUCAGUUGUCUUU	0.666
Ib_S4_P4E.1_K4.1_C4.1_H4.1_[T1A]_A4.1_F4.1_[T8A]_T4.1 (ssRNA) RNA: UUUGACAACUGAUCGUUCUUUCUAGUAUAUAAUUCUUUCUCGAUCAGUUGUCUUU	1.68
Ib_S4_P3E.1_K3.1_C3.1_H3.1_[T1A]_A3.1_[A6T]_F3.1_T3.1 (ssRNA) RNA: UUUGACAACUGAUCGUUCUUUCUAGUAUUUAUUCUUUCUCGAUCAGUUGUCUUU	> 2.3
Ib_S4_P3E.1_K3.1_C3.1_H3.1_[A4C]_A3.1_[A6T]_F3.1_T3.1 (ssRNA) RNA: UUUGACAACUGAUCGUUCUUUCUUGUCUUUAUUCUUUCUCGAUCAGUUGUCUUU	1.14
Ib_S4_P3E.1_K3.1_C3.1_H3.1_[A4C]_A3.1_[A6G]_F3.1_T3.1 (ssRNA) RNA: UUUGACAACUGAUCGUUCUUUCUUGUCUGUAUUCUUUCUCGAUCAGUUGUCUUU	0.0405
Ia_S4_P3E.1_K3.1_C3.1_H3.1_A3.1_F3.1_[A8C]_T3.1 (ssRNA) RNA: UUUGACAACUGAUCGUUCUUUCUUGUAUAUCUUCUUUCUCGAUCAGUUGUCUUU	0.0123
Ib_S4_P3E.1_K3.1_C3.1_H3.1_[A4C]_A3.1_[T5A]_F3.1_T3.1 (ssRNA) RNA: UUUGACAACUGAUCGUUCUUUCUUGUCAAUAUUCUUUCUCGAUCAGUUGUCUUU	1.45
Ib_S4_P3E.1_K3.1_C3.1_H3.1_[G2A]_A3.1_[A6G]_F3.1_T3.1 (ssRNA) RNA: UUUGACAACUGAUCGUUCUUUCUUAUAUGUAUUCUUUCUCGAUCAGUUGUCUUU	0.0722
Ib_S4_P3E.1_K3.1_C3.1_H3.1_[A4C]_A3.1_[A6C]_F3.1_T3.1 (ssRNA) RNA: UUUGACAACUGAUCGUUCUUUCUUGUCUCUAUUCUUUCUCGAUCAGUUGUCUUU	1.37
Ic_S4_P3E.1_K3.1_C3.1_H3.1_A3.1_[T5C]_[A6T]_F3.1_T3.1 (ssRNA) RNA: UUUGACAACUGAUCGUUCUUUCUUGUACUUAUUCUUUCUCGAUCAGUUGUCUUU	0.0168
Ia_S4_P3E.1_K3.1_C3.1_H3.1_A3.1_F3.1_[A8G]_T3.1 (ssRNA) RNA: UUUGACAACUGAUCGUUCUUUCUUGUAUAUGUUCUUUCUCGAUCAGUUGUCUUU	0.00832
Ia_S4_P3E.1_K3.1_C3.1_H3.1_[T1G]_A3.1_F3.1_T3.1 (ssRNA) RNA: UUUGACAACUGAUCGUUCUUUCUGGUAUAUAUUCUUUCUCGAUCAGUUGUCUUU	1.28
Ib_S4_P3E.1_K3.1_C3.1_H3.1_[G2A]_A3.1_[A6T]_F3.1_T3.1 (ssRNA) RNA: UUUGACAACUGAUCGUUCUUUCUUAUAUUUAUUCUUUCUCGAUCAGUUGUCUUU	1.9
Ib_S4_P3E.1_K3.1_C3.1_H3.1_[A4G]_A3.1_[T5C]_F3.1_T3.1 (ssRNA) RNA: UUUGACAACUGAUCGUUCUUUCUUGUGCAUAUUCUUUCUCGAUCAGUUGUCUUU	0.0224
Ib_S4_P3E.1_K3.1_C3.1_H3.1_[G2A]_A3.1_[T5C]_F3.1_T3.1 (ssRNA) RNA: UUUGACAACUGAUCGUUCUUUCUUAUACAUAUUCUUUCUCGAUCAGUUGUCUUU	0.383
Ib_S4_P3E.1_K3.1_C3.1_H3.1_[A4G]_A3.1_[A6C]_F3.1_T3.1 (ssRNA) RNA: UUUGACAACUGAUCGUUCUUUCUUGUGUCUAUUCUUUCUCGAUCAGUUGUCUUU	0.117
Ib_S4_P3E.1_K3.1_C3.1_H3.1_[A4C]_A3.1_[T5C]_F3.1_T3.1 (ssRNA) RNA: UUUGACAACUGAUCGUUCUUUCUUGUCCAUAUUCUUUCUCGAUCAGUUGUCUUU	0.443
Ib_S4_P3E.1_K3.1_C3.1_H3.1_A3.1_[T5C]_[A6C]_F3.1_T3.1 (ssRNA) RNA: UUUGACAACUGAUCGUUCUUUCUUGUACCUAUUCUUUCUCGAUCAGUUGUCUUU	0.0148
Ib_S4_P3E.1_K3.1_C3.1_H3.1_[G2T]_A3.1_[A6T]_F3.1_T3.1 (ssRNA) RNA: UUUGACAACUGAUCGUUCUUUCUUUUAUUUAUUCUUUCUCGAUCAGUUGUCUUU	> 2.3
Ib_S4_P3E.1_K3.1_C3.1_H3.1_[A4G]_A3.1_[A6T]_F3.1_T3.1 (ssRNA) RNA: UUUGACAACUGAUCGUUCUUUCUUGUGUUUAUUCUUUCUCGAUCAGUUGUCUUU	0.0923
Ia_S4_P3E.1_K3.1_C3.1_H3.1_A3.1_F3.1_[T7A]_T3.1 (ssRNA) RNA: UUUGACAACUGAUCGUUCUUUCUUGUAUAAAUUCUUUCUCGAUCAGUUGUCUUU	0.0545
Ib_S4_P3E.1_K3.1_C3.1_H3.1_[G2A]_A3.1_[T5A]_F3.1_T3.1 (ssRNA) RNA: UUUGACAACUGAUCGUUCUUUCUUAUAAAUAUUCUUUCUCGAUCAGUUGUCUUU	2.08
